Measured values: patent publication US20130216549A1 (NOVLMMUNE S A, published 2013)
Positions count from the first letter of the chain named.

T1: recombinant human IP-10 (Peprotech) (human, UniProt P02778 22-98)
T1 sequence: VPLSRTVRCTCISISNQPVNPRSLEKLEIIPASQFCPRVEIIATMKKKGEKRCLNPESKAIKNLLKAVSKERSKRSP

T2: NusA-rat IP-10 fusion protein (rat, UniProt P48973 22-98)
T2 chain: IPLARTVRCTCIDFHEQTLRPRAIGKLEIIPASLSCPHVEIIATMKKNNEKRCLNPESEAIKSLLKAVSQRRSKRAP

T3: NusA-cynomolgus IP-10 fusion protein (cynomolgus, UniProt Q8MIZ1 22-98 (rhesus entry))
T3 construct: junction and C-terminal AviTag not spelled out
T3 sequence: T1 sequence with V1I, A32P, R38H

B1: CC21R3P1_A2 (scFv format) (scFv, V domains shown)
VH: QLVESGGGLIQPGGSLRLSCAASGFSVSDTYMNWVRQAPGKGLEWVSSIYSDDSTYYADSVKGRFTISRDNSKNTLFLQINSLRAEDTAVYYCARDKEYVTSTGGAYYYFYYMDVWGQGTLVTVSS
VL: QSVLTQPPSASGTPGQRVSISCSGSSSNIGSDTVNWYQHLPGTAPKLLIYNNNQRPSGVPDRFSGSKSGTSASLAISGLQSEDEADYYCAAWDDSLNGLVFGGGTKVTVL
B2: NI-0801 (IgG1-formatted) (antibody, V domains shown)
VH: QVQLVESGGGVVQPGRSLRLSCAASGFTFSNSGIHWVRQAPGKGLEWVAVISYDGSNKYYADSVKGRFTISRDNSKNTLYLQMNSLRAEDTAVYYCARLRDNAEYTDYWGQGTLVTVSS
VL: NFMLTQPHSVSESPGKTVTISCTGSGGSIASNYVQWYQQRPGSSPTTVIYEDNQRPSGVPDRFSGSIDSSSNSASLTISGLKTEDEADYYCQSYDPLPVWVFGGGTKLTVLG

Key:
[1] = target: T1, recombinant human IP-10 (Peprotech); assay: cell-based or functional assay
[2] = target: T2, NusA-rat IP-10 fusion protein; assay: capture ELISA: NI-0801 coated, NusA fusion protein titrated, detected with anti-NusA antibody, fluorescence
Text: (§1) Briefly, IP-10 cloned from cDNA isolated from mouse, rat, rabbit and cynomolgus as well as a panel of human chemokines was expressed and purified as described in Example 1.

[3] = target: T3, NusA-cynomolgus IP-10 fusion protein; assay: capture ELISA: NI-0801 coated, NusA fusion protein titrated (CK Conc [M]), detected with anti-NusA antibody, fluorescence
Text: as §1

| Binder | Calcium flux IC50 (nM); 10 nM hIP-10 [1] [nM] | Chemotaxis IC50 (nM); 1 nM hIP-10 [1] [nM] | binding result [2] | EC50 (read off the curve) [3] [nM] |
| --- | --- | --- | --- | --- |
| B1 | 36 | 7 | – | – |
| B2 | – | – | no binding (tested: about 2.5e-7 M) | ~1 |
